Substitutions are numbered along the chain they refer to. Numbers in names are those of the source. Values belong to the molecule of their own block, whether it stands above or below them.
Key:
[1] = biological target: human interleukin 13 receptor alpha 2 (IL-13Rα2), biotinylated (human) (UniProt Q14627); assay: flow cytometry, PE-labelled mouse IgG1, live SKOV3 cells
[2] = biological target: human interleukin 13 receptor alpha 2 (IL-13Rα2), biotinylated (human) (UniProt Q14627); assay: flow cytometry, PE-labelled mouse IgG1, live U87 cells
[3] = biological target: human interleukin 13 receptor alpha 1 (IL-13Rα1), biotinylated ectodomain (human) (UniProt P78552); assay: SPR (Biacore T100), biotinylated receptor on SA chip, 1:1 kinetic fit
[4] = biological target: human interleukin 13 receptor alpha 1 (IL-13Rα1), biotinylated ectodomain (human) (UniProt P78552); assay: SPR, kinetic fit
[5] = biological target: human interleukin 13 receptor alpha 1 (IL-13Rα1), biotinylated ectodomain (human) (UniProt P78552); assay: SPR (Biacore T100), biotinylated receptor on SA chip, equilibrium KD
[6] = biological target: T1, human interleukin 13 receptor alpha 2 (IL-13Rα2), biotinylated (human, UniProt Q14627 27-343, limits assumed, biotinylated (site not stated)); assay: SPR (Biacore T100), biotinylated receptor on SA chip, 1:1 kinetic fit
T1 construct: The methods give construct limits only for IL-13Rα1 and IL-4Rα1; For IL-13Rα2 they say only that the biotinylated receptor was captured on the SA chip; also called IL13RA2; CD213a2
T1 sequence (looked up): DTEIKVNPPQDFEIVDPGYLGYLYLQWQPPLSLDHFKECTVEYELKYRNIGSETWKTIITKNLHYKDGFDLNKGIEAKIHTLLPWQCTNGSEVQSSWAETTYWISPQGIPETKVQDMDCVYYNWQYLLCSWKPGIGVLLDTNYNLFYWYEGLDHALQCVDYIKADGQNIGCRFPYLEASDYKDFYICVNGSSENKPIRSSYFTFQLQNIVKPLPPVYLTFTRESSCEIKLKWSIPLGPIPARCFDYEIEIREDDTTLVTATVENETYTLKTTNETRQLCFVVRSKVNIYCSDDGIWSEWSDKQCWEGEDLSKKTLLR
Description: (§1) Surface Plasmon Resonance. SPR experiments were conducted on a Biacore T100 instrument. Experiments used a Biacore SA sensor chip (GE Healthcare). Biotinylated IL-13Rα1 and IL-13Rα2 receptors were captured at a low density (100-200 RU) and kinetic runs were conducted at 40 μL/min. An unrelated biotinylated protein was immobilized as a reference surface for the SA sensor chip with matching RU to the experimental surface. All data was analyzed using the Biacore T100 evaluation software version 2.0 with a 1:1 Langmuir binding model. Serial dilutions of unbiotinylated IL-13 variants in the running buffer [1×HBS-P (GE Healthcare)+0.5% BSA] were flowed over the chip and IL-13Rα1/IL-13Rα2 were regenerated by using one 60 second injections of 7 mM glycine (pH 3.0).

[7] = biological target: T1, human interleukin 13 receptor alpha 2 …; assay: SPR (Biacore T100), biotinylated receptor on SA chip, equilibrium KD
Description: as §1

[8] = biological target: T1, human interleukin 13 receptor alpha 2 …; assay: SPR, kinetic fit
Description: as §1

B5: A7 (ligand)
cytokine: PGPVPPSTAIRELIEELINITQNQKAPLCNGSMVWSINLTAGMYCAALESLINVSGCSAIEKTQRMLSGFCPHKVSAGQFSSLHVRGSKIEVAQFVKDLLHHLRALFREGQFN
notes: also called IL-13 variant A7 (L10I, V18I, D87G, T88S, L101H, K104R, K105A)
- Kd [3]: 1.18 nM
- koff [3]: 0.0034 s⁻¹
- kon [3]: 2.9e+06 M⁻¹ s⁻¹
- Kd [6]: 0.218 nM
- koff [6]: 0.0041 s⁻¹
- kon [6]: 1.8e+07 M⁻¹ s⁻¹

B7: C3 (ligand)
cytokine: B5 cytokine with I10A, I18V, R86T, S88K, K89R, H101N, R108K
notes: also called IL-13 variant C3 (L10A, R86T, D87G, T88K, K89R, L101N, K104R, K105A, R108K)
- Kd [5]: 16000 nM
- Kd [6]: 0.379 nM
- koff [6]: 0.002 s⁻¹
- kon [6]: 6e+06 M⁻¹ s⁻¹

B8: A6 (ligand)
cytokine: B5 cytokine with I18L, R86M, G87K
notes: also called IL-13 variant A6 (L10I, V18L, R86M, D87K, T88S, L101H, K104R, K105A)
- Kd [3]: 1.9 nM
- koff [3]: 0.0033 s⁻¹
- kon [3]: 1.77e+06 M⁻¹ s⁻¹
- Kd [6]: 0.267 nM
- koff [6]: 0.0028 s⁻¹
- kon [6]: 1.07e+07 M⁻¹ s⁻¹

B10: A8 (ligand)
cytokine: B5 cytokine with G87S, K89R, A105T
notes: also called IL-13 variant A8 (L10I, V18I, D87S, T88S, K89R, L101H, K104R, K105T)
- Kd [3]: 2.06 nM
- koff [3]: 0.0033 s⁻¹
- kon [3]: 1.64e+06 M⁻¹ s⁻¹
- Kd [6]: 0.263 nM
- koff [6]: 0.0026 s⁻¹
- kon [6]: 1.01e+07 M⁻¹ s⁻¹

B11: B6 (ligand)
cytokine: B5 cytokine with I10T, H101Y, A105T
notes: the sheet prints K at position 89 (same as wild type); also called IL-13 variant B6 (L10T, V18I, D87G, T88S, L101Y, K104R, K105T)
- Kd [3]: 5.9 nM
- koff [3]: 0.0082 s⁻¹
- kon [3]: 1.4e+06 M⁻¹ s⁻¹
- Kd [7]: 53 nM

B12: C9 (ligand)
cytokine: B5 cytokine with I10H, R11L, R86K, G87E, S88T, K89R, H101N, R104K, A105T, R108K
notes: also called IL-13 variant C9 (L10H, R11L, V18I, R86K, D87E, K89R, L101N, K105T, R108K)
- Kd [5]: 31000 nM
- Kd [6]: 0.259 nM
- koff [6]: 0.000529 s⁻¹
- kon [6]: 2.03e+06 M⁻¹ s⁻¹

B15: C7 (ligand)
cytokine: B5 cytokine with I10L, R11S, I14M, I18V, G87D, H101N, R104K, R108K
notes: also called IL-13 variant C7 (R11S, I14M, T88S, L101N, K105A, R108K)
- Kd [5]: 35000 nM
- Kd [6]: 0.272 nM
- koff [6]: 0.00057 s⁻¹
- kon [6]: 2.1e+06 M⁻¹ s⁻¹

B16: C2 (ligand)
cytokine: B5 cytokine with I10D, R11I, R86K, G87K, S88T, K89R, H101L, R104K, A105K, R108K
notes: also called IL-13 variant C2 (L10D, R11I, V18I, R86K, D87K, K89R, R108K)
- Kd [5]: 4000 nM
- Kd [6]: 0.025 nM
- koff [6]: 0.00015 s⁻¹
- kon [6]: 6.6e+06 M⁻¹ s⁻¹

B17: B2 (ligand)
cytokine: B5 cytokine with I10L, R86T, H101Y
notes: also called IL-13 variant B2 (V18I, R86T, D87G, T88S, L101Y, K104R, K105A)
- Kd [3]: 0.275 nM
- koff [3]: 0.0017 s⁻¹
- kon [3]: 6.3e+06 M⁻¹ s⁻¹
- Kd [6]: 1.5 nM
- koff [6]: 0.01 s⁻¹
- kon [6]: 7.8e+06 M⁻¹ s⁻¹

B18: A5 (ligand)
cytokine: B5 cytokine with I10L, R11I, R86K, F107M
notes: also called IL-13 variant A5 (R11I, V18I, R86K, D87G, T88S, L101H, K104R, K105A, F107M)
- Kd [3]: 2.94 nM
- koff [3]: 0.0082 s⁻¹
- kon [3]: 2.8e+06 M⁻¹ s⁻¹
- Kd [7]: 50 nM

Now from value to molecule:

- % of cells in the PE gate [1]: 0.042%
- % of cells in the PE gate [2]: 0.035%
Molecule: Isotype Control (antibody)

- Kd [3]: 4.38 nM
- koff [3]: 0.022 s⁻¹
- kon [3]: 5.21e+06 M⁻¹ s⁻¹
- Kd [4]: 4.38 nM
- koff [4]: 0.022 s⁻¹
- kon [4]: 5.21e+06 M⁻¹ s⁻¹
Molecule: wild-type human IL-13 (from UniProt P35225 34-146) (ligand)

- Kd [5]: 36000 nM
- Kd [6]: 0.393 nM
- koff [6]: 0.000764 s⁻¹
- kon [6]: 1.94e+06 M⁻¹ s⁻¹
B1: IL-13 variant C4 (L10V, K89R, L101N, K105E, R108T) (ligand)
chain: PGPVPPSTAVRELIEELVNITQNQKAPLCNGSMVWSINLTAGMYCAALESLINVSGCSAIEKTQRMLSGFCPHKVSAGQFSSLHVRDTRIEVAQFVKDLLNHLKELFTEGQFNHHHHHH
notes: the first is used here; also called polypeptide C4

- Kd [5]: 1600 nM
- Kd [6]: 0.0001 nM
- koff [6]: 9.18e-07 s⁻¹
- kon [6]: 6.41e+06 M⁻¹ s⁻¹
B2: IL-13 variant C11 (IL-13Rα2-selective IL-13 superkine; L10H, R86T, D87G, T88R, R108K) (ligand)
chain: B1 chain with V10H, R86T, D87G, T88R, R89K, N101L, E105K, T108K
notes: the first is used here; Made in insect Hi5 cells; also called polypeptide C11

- Kd [5]: 4100 nM
- Kd [6]: 0.003 nM
- koff [6]: 5.37e-05 s⁻¹
- kon [6]: 1.77e+07 M⁻¹ s⁻¹
B3: IL-13 variant D7 (IL-13Rα2-selective IL-13 superkine; L10A, V18F, R86K, D87K, K89R, L101I, K104R, R108K) (ligand)
chain: B1 chain with V10A, V18F, Q64K, S81P, R86K, D87K, N101I, K104R, E105K, T108K
notes: the first is used here; also called polypeptide D7

- Kd [3]: 18 nM
- koff [3]: 0.024 s⁻¹
- kon [3]: 1.36e+06 M⁻¹ s⁻¹
- Kd [7]: 108 nM
B4: IL-13 variant B4 (R11S, V18I, R86K, D87G, T88S, K89M, L101Y, K104R, K105T) (ligand)
chain: PGPVPPSTALSELIEELINITQNQKAPLCNGSMVWSINPTAGMYCAALESLINVSGCSAIEKTQRMLSGFCPHKVAAGQFSSLHDKGSMIEVAQFVKDLLYHLRTLFREGQFNHHHHHH
notes: also called polypeptide B4

- Kd [5]: 264 nM
- Kd [6]: 5 nM
- koff [6]: 0.0061 s⁻¹
- kon [6]: 1.19e+06 M⁻¹ s⁻¹
B6: C10 (ligand)
cytokine: B5 cytokine with I10H, R11L, R86M, G87D, S88T, K89R, H101L, R104K, A105K, R108K
notes: also called IL-13 variant C10 (L10H, R11L, V18I, R86M, K89R, R108K)

- Kd [3]: 0.084 nM
- koff [3]: 0.0013 s⁻¹
- kon [3]: 1.64e+07 M⁻¹ s⁻¹
- Kd [6]: 0.391 nM
- koff [6]: 0.006 s⁻¹
- kon [6]: 1.62e+07 M⁻¹ s⁻¹
B9: A11 (ligand)
cytokine: B5 cytokine with I10V, G87S, H101F, A105T
notes: also called IL-13 variant A11 (L10V, V18I, D87S, T88S, L101F, K104R, K105T)

- Kd [5]: 15000 nM
- Kd [6]: 0.053 nM
- koff [6]: 0.000404 s⁻¹
- kon [6]: 7.61e+06 M⁻¹ s⁻¹
B13: C12 (ligand)
cytokine: B5 cytokine with I10H, I18V, R86M, G87D, K89R, H101N, R108K
notes: also called IL-13 variant C12 (L10H, R86M, T88S, K89R, L101N, K104R, K105A, R108K)

- Kd [4]: 0.084 nM
- koff [4]: 0.0013 s⁻¹
- kon [4]: 1.64e+07 M⁻¹ s⁻¹
- Kd [8]: 0.391 nM
- koff [8]: 0.006 s⁻¹
- kon [8]: 1.62e+07 M⁻¹ s⁻¹
B14: IL-13dn (ligand)
cytokine: B5 cytokine with I10V, E12A, R65D, G87S, H101F, A105T
notes: also called IL13dn (L10V, E12A, V18I, R65D, D87S, T88S, L101F, K104R, K105T)

— patent US20210214410A1 (Stanford University, published 2021)
